From article PMC9482650, “Quantitative fragmentomics allow affinity mapping of interactomes” (Nature Communications, 2022)

T1: DLG3_1, Q92796
T1 sequence (Q92796 125-227, limits assumed, looked up): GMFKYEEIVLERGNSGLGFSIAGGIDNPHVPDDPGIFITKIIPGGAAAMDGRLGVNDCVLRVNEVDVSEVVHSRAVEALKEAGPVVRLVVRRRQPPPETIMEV

T2: MPDZ_5, O75970
T2 sequence (O75970 695-796, limits assumed, looked up): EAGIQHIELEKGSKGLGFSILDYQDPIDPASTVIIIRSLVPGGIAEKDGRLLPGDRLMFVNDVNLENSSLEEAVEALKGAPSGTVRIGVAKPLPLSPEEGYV

T3: SNTB1, Q13884
T3 sequence (Q13884 107-205, limits assumed, looked up): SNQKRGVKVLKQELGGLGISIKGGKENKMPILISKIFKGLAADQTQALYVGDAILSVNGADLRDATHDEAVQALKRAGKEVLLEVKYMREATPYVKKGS

T4: GRIP1_2, Q9Y3R0
T4 sequence (Q9Y3R0 145-248, limits assumed, looked up): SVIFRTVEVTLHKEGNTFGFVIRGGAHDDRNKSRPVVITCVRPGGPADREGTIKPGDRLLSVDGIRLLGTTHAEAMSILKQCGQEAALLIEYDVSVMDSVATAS

T5: CARD11, Q9BXL7
T5 sequence (Q9BXL7 662-765, limits assumed, looked up): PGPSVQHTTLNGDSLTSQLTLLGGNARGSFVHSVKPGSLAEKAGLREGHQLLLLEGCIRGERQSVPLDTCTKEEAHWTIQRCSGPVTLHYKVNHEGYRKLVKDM

T6: MPP2, Q14168
T6 sequence (Q14168 180-250, limits assumed, looked up): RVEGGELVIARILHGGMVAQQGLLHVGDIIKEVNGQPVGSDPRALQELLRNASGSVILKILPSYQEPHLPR

T7: APBA1_1, Q02410
T7 sequence (Q02410 651-752, limits assumed, looked up): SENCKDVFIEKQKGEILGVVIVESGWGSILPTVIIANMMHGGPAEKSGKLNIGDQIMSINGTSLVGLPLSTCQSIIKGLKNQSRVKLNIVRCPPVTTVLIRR

T8: APBA2_2, Q99767
T8 sequence (Q99767 654-744, limits assumed, looked up): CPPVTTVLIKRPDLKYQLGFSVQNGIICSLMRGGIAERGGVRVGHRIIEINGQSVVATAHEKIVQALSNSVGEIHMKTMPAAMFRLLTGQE

T9: LNX2_2, Q8N448
T9 sequence (Q8N448 334-432, limits assumed, looked up): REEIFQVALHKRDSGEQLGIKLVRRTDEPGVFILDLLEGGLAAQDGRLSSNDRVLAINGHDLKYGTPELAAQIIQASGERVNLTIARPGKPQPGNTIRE

T10: ARHGEF11, O15085
T10 sequence (O15085 42-136, limits assumed, looked up): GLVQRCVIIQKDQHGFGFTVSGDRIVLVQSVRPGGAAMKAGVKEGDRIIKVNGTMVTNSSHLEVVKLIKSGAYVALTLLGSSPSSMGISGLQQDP

T11: RADIL, Q96JH8
T11 sequence (Q96JH8 971-1071, limits assumed, looked up): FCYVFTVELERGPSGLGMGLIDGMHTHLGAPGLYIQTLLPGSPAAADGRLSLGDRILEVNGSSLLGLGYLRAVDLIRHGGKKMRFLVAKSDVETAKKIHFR

T12: TX1BP3, O14907
T12 sequence (O14907 10-122, limits assumed, looked up): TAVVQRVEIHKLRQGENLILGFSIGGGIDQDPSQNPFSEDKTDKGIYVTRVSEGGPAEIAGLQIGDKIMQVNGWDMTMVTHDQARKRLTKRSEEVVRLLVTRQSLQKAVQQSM


How the values were obtained:
Assay in all cases: holdup assay
Set-up in all cases: key: below the threshold = too weak to quantify, mostly under pKd 3.1 to 4
Conditions in all cases: plain residues with an end cap or a label only (N-terminal biotin on a linker: ado-ado)
DLG1_1, Q12959 = target: DLG1_1, Q12959
MAGI3_2, Q5TCQ9 = target: MAGI3_2, Q5TCQ9
DLG3_1, Q92796 = target: T1, DLG3_1, Q92796
DLG1_3, Q12959 = target: DLG1_3, Q12959
DLG4_2, P78352 = target: DLG4_2, P78352
MPDZ_5, O75970 = target: T2, MPDZ_5, O75970
SNTB1, Q13884 = target: T3, SNTB1, Q13884
GRIP1_2, Q9Y3R0 = target: T4, GRIP1_2, Q9Y3R0
TJP1_2, Q07157 = target: TJP1_2, Q07157
CARD11, Q9BXL7 = target: T5, CARD11, Q9BXL7
LAP2, Q96RT1 = target: LAP2, Q96RT1
PICK1, Q9NRD5 = target: PICK1, Q9NRD5
Inadl_10, Q8NI35 = target: Inadl_10, Q8NI35
LNX1_2, Q8TBB1 = target: LNX1_2, Q8TBB1
MPP2, Q14168 = target: T6, MPP2, Q14168
APBA1_1, Q02410 = target: T7, APBA1_1, Q02410
TJP2_1, Q9UDY2 = target: TJP2_1, Q9UDY2
APBA2_2, Q99767 = target: T8, APBA2_2, Q99767
AHNAK1, Q09666 = target: AHNAK1, Q09666
LNX2_2, Q8N448 = target: T9, LNX2_2, Q8N448
PDZRN4_1, Q6ZMN7 = target: PDZRN4_1, Q6ZMN7
ARHGEF11, O15085 = target: T10, ARHGEF11, O15085
RADIL, Q96JH8 = target: T11, RADIL, Q96JH8
MAGI2_4, Q86UL8 = target: MAGI2_4, Q86UL8
DLG2_3, Q15700 = target: DLG2_3, Q15700
TX1BP3, O14907 = target: T12, TX1BP3, O14907

Sequence of LAP2, Q96RT1 (Q96RT1 other isoform, or with tags, fused parts or gaps): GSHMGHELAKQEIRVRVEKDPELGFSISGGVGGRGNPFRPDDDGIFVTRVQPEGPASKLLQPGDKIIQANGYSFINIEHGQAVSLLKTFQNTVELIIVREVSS
Sequence of PICK1, Q9NRD5 (Q9NRD5 17-115): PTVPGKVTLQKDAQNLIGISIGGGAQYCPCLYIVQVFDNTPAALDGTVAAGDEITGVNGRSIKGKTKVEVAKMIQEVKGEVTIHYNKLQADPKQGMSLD
Sequence of LNX1_2, Q8TBB1 (Q8TBB1 371-470): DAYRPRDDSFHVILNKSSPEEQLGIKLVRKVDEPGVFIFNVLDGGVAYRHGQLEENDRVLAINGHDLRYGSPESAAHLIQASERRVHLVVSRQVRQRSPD
Sequence of DLG4_2, P78352 (P78352 155-259): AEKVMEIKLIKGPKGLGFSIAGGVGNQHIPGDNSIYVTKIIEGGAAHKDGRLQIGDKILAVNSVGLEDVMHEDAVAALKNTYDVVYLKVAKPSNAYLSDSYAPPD
Sequence of TJP2_1, Q9UDY2 (Q9UDY2 24-128): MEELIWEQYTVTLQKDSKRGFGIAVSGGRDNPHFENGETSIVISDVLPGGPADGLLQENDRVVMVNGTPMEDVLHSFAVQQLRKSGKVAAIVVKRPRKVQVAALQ
Sequence of TJP1_2, Q07157 (Q07157 181-274): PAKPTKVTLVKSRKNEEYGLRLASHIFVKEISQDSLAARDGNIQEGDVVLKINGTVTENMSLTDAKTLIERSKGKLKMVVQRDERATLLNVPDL
Sequence of PDZRN4_1, Q6ZMN7 (Q6ZMN7 213-318): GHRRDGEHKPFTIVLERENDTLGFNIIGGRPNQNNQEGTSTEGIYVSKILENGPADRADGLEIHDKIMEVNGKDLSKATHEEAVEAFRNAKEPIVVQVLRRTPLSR
Sequence of AHNAK1, Q09666 (Q09666 4-100): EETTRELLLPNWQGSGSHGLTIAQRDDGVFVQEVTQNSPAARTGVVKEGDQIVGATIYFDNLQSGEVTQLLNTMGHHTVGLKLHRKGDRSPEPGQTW
Sequence of Inadl_10, Q8NI35 (Q8NI35 1673-1763): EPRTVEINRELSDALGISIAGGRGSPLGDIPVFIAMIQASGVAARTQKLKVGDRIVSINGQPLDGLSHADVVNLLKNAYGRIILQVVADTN
Sequence of MAGI2_4, Q86UL8 (Q86UL8 772-865): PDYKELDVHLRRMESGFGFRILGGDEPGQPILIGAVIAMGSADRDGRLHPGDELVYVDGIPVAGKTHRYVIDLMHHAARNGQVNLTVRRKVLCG
Sequence of MAGI3_2, Q5TCQ9 (Q5TCQ9 398-503): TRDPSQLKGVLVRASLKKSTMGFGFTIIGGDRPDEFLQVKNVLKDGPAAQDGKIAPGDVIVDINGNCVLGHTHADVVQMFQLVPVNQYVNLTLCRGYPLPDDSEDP

Binder | pKd (DLG1_1, Q12959) | pKd (MAGI3_2, Q5TCQ9) | pKd (DLG3_1, Q92796) | pKd (DLG1_3, Q12959) | pKd (DLG4_2, P78352) | pKd (MPDZ_5, O75970) | pKd (SNTB1, Q13884) | pKd (GRIP1_2, Q9Y3R0) | pKd (TJP1_2, Q07157) | pKd (CARD11, Q9BXL7) | pKd (LAP2, Q96RT1) | pKd (PICK1, Q9NRD5) | pKd (Inadl_10, Q8NI35) | pKd (LNX1_2, Q8TBB1) | pKd (MPP2, Q14168) | pKd (APBA1_1, Q02410) | pKd (TJP2_1, Q9UDY2) | pKd (APBA2_2, Q99767) | pKd (AHNAK1, Q09666) | pKd (LNX2_2, Q8N448) | other results
EALLQMESVA [CAVIN3, Q969G5] | below the threshold | below the threshold | below the threshold | below the threshold | below the threshold | below the threshold | below the threshold | below the threshold | below the threshold | below the threshold | below the threshold | below the threshold | below the threshold | below the threshold | below the threshold | below the threshold | below the threshold | 3.61 | below the threshold | below the threshold | pKd (PDZRN4_1, Q6ZMN7): below the threshold; pKd (ARHGEF11, O15085): below the threshold; pKd (RADIL, Q96JH8): below the threshold; pKd (MAGI2_4, Q86UL8): below the threshold; pKd (DLG2_3, Q15700): 3.84; pKd (TX1BP3, O14907): below the threshold
EKKTLIGIKL [GOT1L1, Q8NHS2] | below the threshold | below the threshold | below the threshold | below the threshold | below the threshold | below the threshold | below the threshold | below the threshold | below the threshold | below the threshold | below the threshold | 4.14 | below the threshold | below the threshold | below the threshold | below the threshold | below the threshold | below the threshold | below the threshold | below the threshold | pKd (PDZRN4_1, Q6ZMN7): below the threshold; pKd (ARHGEF11, O15085): below the threshold; pKd (RADIL, Q96JH8): below the threshold; pKd (MAGI2_4, Q86UL8): below the threshold; pKd (DLG2_3, Q15700): below the threshold; pKd (TX1BP3, O14907): below the threshold
VKPQVSESKL [ACOT8, O14734] | below the threshold | 3.59 | below the threshold | below the threshold | below the threshold | below the threshold | 3.85 | below the threshold | below the threshold | below the threshold | below the threshold | 3.84 | below the threshold | below the threshold | below the threshold | below the threshold | below the threshold | below the threshold | below the threshold | below the threshold | pKd (PDZRN4_1, Q6ZMN7): 3.83; pKd (ARHGEF11, O15085): below the threshold; pKd (RADIL, Q96JH8): below the threshold; pKd (MAGI2_4, Q86UL8): below the threshold; pKd (DLG2_3, Q15700): 3.74; pKd (TX1BP3, O14907): below the threshold

Second part, led by results:

pKd (DLG1_1, Q12959) | pKd (MAGI3_2, Q5TCQ9) | pKd (DLG3_1, Q92796) | pKd (DLG1_3, Q12959) | pKd (DLG4_2, P78352) | pKd (MPDZ_5, O75970) | pKd (SNTB1, Q13884) | pKd (GRIP1_2, Q9Y3R0) | pKd (TJP1_2, Q07157) | pKd (CARD11, Q9BXL7) | pKd (LAP2, Q96RT1) | pKd (PICK1, Q9NRD5) | pKd (Inadl_10, Q8NI35) | pKd (LNX1_2, Q8TBB1) | pKd (MPP2, Q14168) | pKd (APBA1_1, Q02410) | pKd (TJP2_1, Q9UDY2) | pKd (APBA2_2, Q99767) | pKd (AHNAK1, Q09666) | pKd (LNX2_2, Q8N448) | Binder | other results
below the threshold | below the threshold | below the threshold | below the threshold | below the threshold | below the threshold | below the threshold | below the threshold | below the threshold | below the threshold | below the threshold | below the threshold | below the threshold | below the threshold | below the threshold | below the threshold | below the threshold | below the threshold | below the threshold | below the threshold | IKAIVDLTGL [TRAF2, Q12933] | pKd (PDZRN4_1, Q6ZMN7): below the threshold; pKd (ARHGEF11, O15085): below the threshold; pKd (RADIL, Q96JH8): below the threshold; pKd (MAGI2_4, Q86UL8): below the threshold; pKd (DLG2_3, Q15700): below the threshold; pKd (TX1BP3, O14907): below the threshold
below the threshold | below the threshold | below the threshold | 3.54 | 3.48 | below the threshold | 3.64 | below the threshold | 3.58 | below the threshold | 3.53 | 4.2 | below the threshold | below the threshold | below the threshold | 3.68 | below the threshold | below the threshold | below the threshold | 3.54 | PRAEAEDSFL [PDGFRB, P09619] | pKd (PDZRN4_1, Q6ZMN7): 3.69; pKd (ARHGEF11, O15085): 3.78; pKd (RADIL, Q96JH8): below the threshold; pKd (MAGI2_4, Q86UL8): 3.6; pKd (DLG2_3, Q15700): below the threshold; pKd (TX1BP3, O14907): 4.34
